# Like-named read-outs stand apart in the source and are kept apart here. Numbered stars: 1 amine (or outer) side, 2 acyl side, 3 side chain; on linkers, the order of the positions; unused ones are H or OH. Bridge positions count the residues as written; N and C are the ends. Square brackets hold non-standard residues; d marks the D form. Ends that are not written are not given here. X2 = (3R)‑3‑amino‑1‑carboxymethyl‑valerolactam, O=C1[C@H](N[*:1])CCCN1CC(=O)[*:2]; X1 = 3‑amino‑2‑oxo‑1‑piperidine‑acetic acid, O=C1C(N[*:1])CCCN1CC(=O)[*:2]; NMeL = CN[C@@H](CC(C)C)C(=O)O; Pen = CC(C)(S)[C@H](N)C(=O)O; NMeA = CN[C@@H](C)C(=O)O; Sar = CNCC(=O)O
# Experiments:
# [1] = target: T1, soluble human FcRn (shFcRn) (human, UniProt P55899 24-297; P61769 21-119); assay: IgG competition ELISA
# T1 construct: Biotinylated for the ELISA, amine-coupled to a CM5 chip for SPR; also called biotinylated shFcRn
# Procedure: (§1) The wells were coated with 100 μl/well of 1 μg/ml biotinylated-shFcRn in Buffer A. The plate was sealed and incubated at 37° C. for 2 hours. Afterwards, the plate was washed with 200 μl/well of Buffer B (Buffer B: 100 mM MES pH 6, 150 mM NaCl, 0.5% BSA IgG-free (Jackson ImmunoResearch, West Grove, Pa.), 0.05% Tween-20). […] To allow for mixing, the plate was rocked for 2 minutes, sealed and incubated at 37° C. for 2 hours. […] The plate was covered, incubated for 30 minutes at room temperature and washed 4 times with 200 μl/well of ice-cold buffer B. SureBlue TMB substrate solution (100 μl/well, KPL, Gaithersburg, Md.) was added and the plate was allowed to incubate at room temperature until color developed, which took 5 to 10 minutes. Once color developed, 100 μl/well of TMB stop solution (KPL, Gaithersburg, Md.) was added and the absorbance was measured at 450 nm. The data was plotted as absorbance vs. peptide concentration to derive the inhibitory concentration 50% (IC₅₀) values.
# [2] = target: T1, soluble human FcRn (shFcRn); assay: IgG competition ELISA; remark: listed apart in the source
# Procedure: as §1
# [3] = target: T1, soluble human FcRn (shFcRn); assay: SPR pH 6
# Procedure: (§2) The following steps were performed to cross-link soluble human or cynomolgus FcRn to the dextran surface of a CM5 sensor chip (Biacore AB, Uppsala, Sweden) by an amine coupling reaction involving 1-ethyl-(3-dimethylaminopropyl)-carbodiimide hydrochloride (EDC) (Biacore AB, Uppsala, Sweden) and N-hydroxysuccinimide (NHS) (Biacore AB, Uppsala, Sweden) as recommended by Biacore (BIAapplications Handbook, version AB, section 4.2, Biacore AB, Uppsala, Sweden). […] Residual sites on the FcRn flow cell were blocked with 1 M ethanolamine hydrochloride pH 8.5 (Biacore AB, Uppsala, Sweden). A control flow cell was blocked with ethanolamine for reference subtraction. For analysis of the monomeric peptides, FcRn was coated to a final density of 4000-5000 response units (RU). For analysis of the peptide dimers, FcRn was coated to a density of 2000-2500 RU. All SPR measurements were performed using a BIACORE 3000 Instrument (Biacore AB Uppsala, Sweden). For measurements done at either pH 6 or pH 7.4, experiments were performed in 50 mM phosphate, 100 mM sodium chloride, 0.01% surfactant P20 (Biacore AB, Uppsala, Sweden).
# (§3) Ten, 2-fold dilutions of the peptide were injected over the FcRn-CM5 chip at a rate of 20 μl/min for 2 min. The peptide was dissociated from the chip for 2.5 minutes with buffer. Any remaining peptide was removed from the chip with a 30 second injection of HBS-P buffer (Biacore AB, Uppsala, Sweden) at a rate of 30 μl/min. Sensorgrams were generated and analyzed using BiaEval software version 3.1 (Biacore AB, Uppsala, Sweden). The equilibrium RU observed for each injection was plotted against concentration. The equilibrium KD values were derived by analysis of the plots using the steady state affinity model included in the BiaEval software.
# [4] = target: T1, soluble human FcRn (shFcRn); assay: IgG competition ELISA; remark: listed apart in the source
# Procedure: as §1
# [5] = target: T1, soluble human FcRn (shFcRn); assay: IgG competition ELISA; remark: listed apart in the source
# Procedure: as §1
# [6] = target: T1, soluble human FcRn (shFcRn); assay: IgG competition ELISA; remark: listed apart in the source
# Procedure: as §1
# [7] = target: T1, soluble human FcRn (shFcRn); assay: IgG competition ELISA; remark: listed apart in the source
# Procedure: as §1
# [8] = target: T1, soluble human FcRn (shFcRn); assay: SPR pH 6; remark: listed apart in the source
# Procedure: as §2, §3
# [9] = target: T1, soluble human FcRn (shFcRn); assay: SPR pH 6; remark: listed apart in the source
# Procedure: as §2, §3
# [10] = target: T1, soluble human FcRn (shFcRn); assay: SPR pH 6; remark: listed apart in the source
# Procedure: as §2, §3
# T1 sequence (P55899 24-297 limits assumed, chain 1 of 2): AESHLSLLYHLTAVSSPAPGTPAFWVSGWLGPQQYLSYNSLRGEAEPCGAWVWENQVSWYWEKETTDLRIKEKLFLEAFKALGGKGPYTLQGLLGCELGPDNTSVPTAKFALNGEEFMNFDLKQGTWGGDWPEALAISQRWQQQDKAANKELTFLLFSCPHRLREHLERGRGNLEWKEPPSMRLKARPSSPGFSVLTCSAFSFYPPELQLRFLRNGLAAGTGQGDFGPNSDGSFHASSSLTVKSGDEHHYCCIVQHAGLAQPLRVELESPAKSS
# T1 sequence (P61769 21-119 limits assumed, chain 2 of 2): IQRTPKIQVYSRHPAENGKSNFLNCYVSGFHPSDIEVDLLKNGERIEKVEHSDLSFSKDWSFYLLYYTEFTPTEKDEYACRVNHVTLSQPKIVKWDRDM
binder,measurement,setting,value
QRF[Pen]TGHFG[Sar]LYPCNGP-NH2 (disulfide 4-14; N-terminus assumed; SMILES CC(C)C[C@@H]1NC(=O)CN(C)C(=O)CNC(=O)[C@H](Cc2ccccc2)NC(=O)[C@H](Cc2c[nH]cn2)NC(=O)CNC(=O)[C@H]([C@@H](C)O)NC(=O)[C@@H](NC(=O)[C@H](Cc2ccccc2)NC(=O)[C@H](CCCNC(=N)N)NC(=O)[C@@H](N)CCC(N)=O)C(C)(C)SSC[C@@H](C(=O)N[C@@H](CC(N)=O)C(=O)NCC(=O)N2CCC[C@H]2C(N)=O)NC(=O)[C@@H]2CCCN2C(=O)[C@H](Cc2ccc(O)cc2)NC1=O) [Peptide No. 112],IC50,[1],900 nM
"RF[Pen]TGHFG[Sar][NMeL]YPCG (disulfide 3-13; also: dimer: C-termini joined through a branching Lys, C-terminally linked dimer; drawing CHEM-US-00131) [Peptide No. 287]",IC50,[2],20 nM
RFCTGHFXLYPC (not fully specified; Pen 3; X 8 = 3(S)-3-amino-2-oxo-1-pyrrolidine acetic acid in place of Gly-Gly; disulfide 3-12; C-terminal amide) [Peptide No. 214],Kd,[3],280 nM
same,IC50,[4],2300 nM
QRFCTGHFGGLXPCNGP (Pen 4; 2-pyridylAla 12 (printed 2-pvridylAla); disulfide 4-14; C-terminal amide) [Peptide No. 66],IC50,[5],> 125 µM
RF[Pen]TGHF[X1]LYPC-NH2 (disulfide 3-12) [Peptide No. 178],Kd,[3],160 nM
same,IC50,[4],660 nM
QRY[Pen]TGHFGGLYPCNGP-NH2 (disulfide 4-14; N-terminus assumed; SMILES CC(C)C[C@@H]1NC(=O)CNC(=O)CNC(=O)[C@H](Cc2ccccc2)NC(=O)[C@H](Cc2c[nH]cn2)NC(=O)CNC(=O)[C@H]([C@@H](C)O)NC(=O)[C@@H](NC(=O)[C@H](Cc2ccc(O)cc2)NC(=O)[C@H](CCCNC(=N)N)NC(=O)[C@@H](N)CCC(N)=O)C(C)(C)SSC[C@@H](C(=O)N[C@@H](CC(N)=O)C(=O)NCC(=O)N2CCC[C@H]2C(N)=O)NC(=O)[C@@H]2CCCN2C(=O)[C@H](Cc2ccc(O)cc2)NC1=O) [Peptide No. 97],IC50,[6],2400 nM
QRF[Pen]TGHFG[Sar]WYPCNGP-NH2 (disulfide 4-14; N-terminus assumed; SMILES C[C@@H](O)[C@@H]1NC(=O)[C@@H](NC(=O)[C@H](Cc2ccccc2)NC(=O)[C@H](CCCNC(=N)N)NC(=O)[C@@H](N)CCC(N)=O)C(C)(C)SSC[C@@H](C(=O)N[C@@H](CC(N)=O)C(=O)NCC(=O)N2CCC[C@H]2C(N)=O)NC(=O)[C@@H]2CCCN2C(=O)[C@H](Cc2ccc(O)cc2)NC(=O)[C@H](Cc2c[nH]c3ccccc23)NC(=O)CN(C)C(=O)CNC(=O)[C@H](Cc2ccccc2)NC(=O)[C@H](Cc2c[nH]cn2)NC(=O)CNC1=O) [Peptide No. 238],IC50,[7],1 µM
QRW[Pen]TGHFGGLYPCNGP-NH2 (disulfide 4-14; N-terminus assumed; SMILES CC(C)C[C@@H]1NC(=O)CNC(=O)CNC(=O)[C@H](Cc2ccccc2)NC(=O)[C@H](Cc2c[nH]cn2)NC(=O)CNC(=O)[C@H]([C@@H](C)O)NC(=O)[C@@H](NC(=O)[C@H](Cc2c[nH]c3ccccc23)NC(=O)[C@H](CCCNC(=N)N)NC(=O)[C@@H](N)CCC(N)=O)C(C)(C)SSC[C@@H](C(=O)N[C@@H](CC(N)=O)C(=O)NCC(=O)N2CCC[C@H]2C(N)=O)NC(=O)[C@@H]2CCCN2C(=O)[C@H](Cc2ccc(O)cc2)NC1=O) [Peptide No. 98],IC50,[6],1500 nM
QRF[Pen]TGHFGGIYPCNGP-NH2 (disulfide 4-14; N-terminus assumed; SMILES CC[C@H](C)[C@@H]1NC(=O)CNC(=O)CNC(=O)[C@H](Cc2ccccc2)NC(=O)[C@H](Cc2c[nH]cn2)NC(=O)CNC(=O)[C@H]([C@@H](C)O)NC(=O)[C@@H](NC(=O)[C@H](Cc2ccccc2)NC(=O)[C@H](CCCNC(=N)N)NC(=O)[C@@H](N)CCC(N)=O)C(C)(C)SSC[C@@H](C(=O)N[C@@H](CC(N)=O)C(=O)NCC(=O)N2CCC[C@H]2C(N)=O)NC(=O)[C@@H]2CCCN2C(=O)[C@H](Cc2ccc(O)cc2)NC1=O) [Peptide No. 101],Kd,[8],340 nM
same,IC50,[7],3.4 µM
QRF[Pen]TGHFGGFYPCNGP-NH2 (disulfide 4-14; N-terminus assumed; SMILES C[C@@H](O)[C@@H]1NC(=O)[C@@H](NC(=O)[C@H](Cc2ccccc2)NC(=O)[C@H](CCCNC(=N)N)NC(=O)[C@@H](N)CCC(N)=O)C(C)(C)SSC[C@@H](C(=O)N[C@@H](CC(N)=O)C(=O)NCC(=O)N2CCC[C@H]2C(N)=O)NC(=O)[C@@H]2CCCN2C(=O)[C@H](Cc2ccc(O)cc2)NC(=O)[C@H](Cc2ccccc2)NC(=O)CNC(=O)CNC(=O)[C@H](Cc2ccccc2)NC(=O)[C@H](Cc2c[nH]cn2)NC(=O)CNC1=O) [Peptide No. 115],Kd,[8],400 nM
same,IC50,[7],4.1 µM
RFCTGHFXLYPC (not fully specified; Pen 3; X 8 = 3(S)-2-amino-2-oxo-1-azepine acetic acid (so in the source) in place of Gly-Gly; disulfide 3-12; C-terminal amide) [Peptide No. 205],Kd,[3],103 nM
same,IC50,[4],640 nM
"QRF[Pen]TGHFGGLYPCNGP-NH2 (disulfide 4-14; also: N-terminally linked homodimer via ethylene glycol-bis(succinic acid) linker, N-terminally linked dimer) [Peptide No. 201]",IC50,[2],26 nM
RF[Pen]TGHF[X1]LYPC-NH2 (disulfide 3-12) [Peptide No. 179],Kd,[3],670 nM
same,IC50,[4],7200 nM
QRF[Pen]TGHF[Sar]GLYPCNGP-NH2 (disulfide 4-14; N-terminus assumed; SMILES CC(C)C[C@@H]1NC(=O)CNC(=O)CN(C)C(=O)[C@H](Cc2ccccc2)NC(=O)[C@H](Cc2c[nH]cn2)NC(=O)CNC(=O)[C@H]([C@@H](C)O)NC(=O)[C@@H](NC(=O)[C@H](Cc2ccccc2)NC(=O)[C@H](CCCNC(=N)N)NC(=O)[C@@H](N)CCC(N)=O)C(C)(C)SSC[C@@H](C(=O)N[C@@H](CC(N)=O)C(=O)NCC(=O)N2CCC[C@H]2C(N)=O)NC(=O)[C@@H]2CCCN2C(=O)[C@H](Cc2ccc(O)cc2)NC1=O) [Peptide No. 111],Kd,[9],2000 nM
"RFCTGHFGGLYPC (Pen 3; Sar 9; NMeLeu 10; disulfide 3-13 within each chain; C-termini joined through the two amino groups of a branching Lys, C-terminally linked dimer; drawing CHEM-US-00124) [Peptide No. 280]",IC50,[2],25 nM
RF[Pen][NMeA]GHF[X2][NMeL]YPC-NH2 (disulfide 3-12; N-terminus assumed; SMILES CC(C)C[C@H]1C(=O)N[C@@H](Cc2ccc(O)cc2)C(=O)N2CCC[C@H]2C(=O)N[C@H](C(N)=O)CSSC(C)(C)[C@H](NC(=O)[C@H](Cc2ccccc2)NC(=O)[C@@H](N)CCCNC(=N)N)C(=O)N(C)[C@@H](C)C(=O)NCC(=O)N[C@@H](Cc2c[nH]cn2)C(=O)N[C@@H](Cc2ccccc2)C(=O)N[C@@H]2CCCN(CC(=O)N1C)C2=O) [Peptide No. 228],Kd,[3],145 nM
same,IC50,[4],1100 nM
"RF[Pen]TGHFG[Sar][NMeL]YPCGG (disulfide 3-13; also: dimer: C-termini joined through a branching Lys, C-terminally linked dimer; drawing CHEM-US-00132) [Peptide No. 288]",IC50,[2],16 nM
"RF[Pen]TGHFG[Sar][NMeL]YPC-NH2 (disulfide 3-13; also: dimer: N-termini joined by Bis-dPEG6 diacid linker, N-terminally linked dimer; drawing CHEM-US-00123) [Peptide No. 279]",IC50,[2],7 nM
RF[Pen]TGHFG[Sar][NMeL]YPC-NH2 (disulfide 3-13; N-terminus assumed; SMILES CC(C)C[C@H]1C(=O)N[C@@H](Cc2ccc(O)cc2)C(=O)N2CCC[C@H]2C(=O)N[C@H](C(N)=O)CSSC(C)(C)[C@H](NC(=O)[C@H](Cc2ccccc2)NC(=O)[C@@H](N)CCCNC(=N)N)C(=O)N[C@@H]([C@@H](C)O)C(=O)NCC(=O)N[C@@H](Cc2c[nH]cn2)C(=O)N[C@@H](Cc2ccccc2)C(=O)NCC(=O)N(C)CC(=O)N1C) [Peptide No. 235],Kd,[9],31 nM
same,Kd,[10],31 nM
RF[Pen]TGHFGGWYPC-NH2 (disulfide 3-13; N-terminus assumed; SMILES C[C@@H](O)[C@@H]1NC(=O)[C@@H](NC(=O)[C@H](Cc2ccccc2)NC(=O)[C@@H](N)CCCNC(=N)N)C(C)(C)SSC[C@@H](C(N)=O)NC(=O)[C@@H]2CCCN2C(=O)[C@H](Cc2ccc(O)cc2)NC(=O)[C@H](Cc2c[nH]c3ccccc23)NC(=O)CNC(=O)CNC(=O)[C@H](Cc2ccccc2)NC(=O)[C@H](Cc2c[nH]cn2)NC(=O)CNC1=O) [Peptide No. 237],Kd,[8],140 nM
same,IC50,[7],2.8 µM

# — US20110059889A1 (SYNTONIX PHARMACEUTICALS, published 2011)
